Laboratory results as given in US20130158238A1 (THERACLONE SCIENCES, published 2013).
Where a chain is given by its changes, count along the chain named.

B1: 3248_P18 (antibody, V domains shown)
VH: QVQLQESGPGLVKPSETLSLTCTVSGGSISAYHWSWIRQPPGKGLEWIGHIFDSGSTYYNPSLKSRVTISLDASKNQLSLRLTSVTASDTAIYYCARPLGSRYYYGMDVWGQGTTVTVSS
VL: DIQMTQSPSSLSASVGDRVTITCRASQSISRYLNWYQQKPGKAPKLLIYGASTLQNGAPSRFSGSGSGTDFTLTISSLQPEDSATYLCQQSYSVPAFGGGTKVEVK
B2: 3241_G23 (antibody, V domains shown)
VH: QVQLQQSGPGLVKPSQTLSLTCTVSGGPVSGGGYSWNWIRQRPGQGLEWVGFMFHSGSPRYNPTLKSRITISVDTSKNLVSLKLSSVTAADTAVYFCARVGQMDKYYAMDVWGQGTTVTVSS
VL: DIQMTQSPSSLSSSVGDRVTITCRASQSIGAYVNWYQQKAGKAPQVLIFGASNLQSGVPSRFSGSGSGTDFTLTISSLQPEDFATYFCQQTYSTPITFGQGTRLEIK
B3: 3245_O19 (antibody, V domains shown)
VH: EVQLVESGGGLVQPGGSLRLSCTASGLSVSSTYMNWVRQAPGKGLEWVSVFYSETRTYYADSVKGRFTVSRHNSNNTLYLQMNSLRVEDTAVYYCARVQRLSYGMDVWGQGTTVTVSS
VL: DIQMTQSPSSLSASVGDRVTITCRASQSISTYLNWYQKRPGKAPKLLVYGASTLQSGVPSRFSGSGSGTDFTLTIASLQPEDSATYYCQQTYSIPLFGQGTRLEIK
B4: 3244_H04 (antibody, V domains shown)
VH: B3 VH with V87A
VL: B3 VL with T53S, T85V
B5: 3259_J21 (antibody, V domains shown)
VH: QVQLQESGPRVVRPSETLSLTCTVSGGSISSYNWIWIRQPPGKGLEWIGHIYDYGRTFYNSSLQSRPTISVDASKNQLSLRLTSVTASDTAVYYCARPLGILHYYAMDLWGQGTTVTVSS
VL: DIQMTQSPLSVSVSVGDRVTIACRASQSIDKFLNWYQQKPGKAPKLLIYGASNLHSGAPSRFSASGSGTDFTLTITNIQTEDFATYLCQQSFSVPAFGGGTKVEIK
B6: 3139_P23 (antibody, V domains shown)
VH: QVQLQESGPRLVKPSESLSLTCTVSGGSISNSFWGWIRQPPGEGLEWIGYVYNSGNTKYNPSLKSRVTISRDTSKSQLYMKLRSVTAADTAVYYCARHDDASHGYSISWGHGTLVTVSS
VL: DIQMTQSPSSLSASVGDRVTITCRASQTISTYLNWYQQKSGKAPKLLIYAASGLQSGVPSRFSGSGSGTDFTLTISSLQPEDFATYFCQQSYNTPLTFGQGTKVEIK
B7: 3244_I10 (antibody, V domains shown)
VH: QVQLQESGPGLLKPSDTLALTCTVSGGSITSDYWSWIRQPPGRGLDWIGFFYNGGSTKYNPSLKSRVTISADTSKNQLSLKLTSVTAADTGVYYCARHDAKFSGSYYVASWGQGTRVTVSS
VL: DIQMTQSPSSLSASVGDRVTISCRASQSISTYLNWYQQQPGKAPKVLIFGATNLQSGVPSRFSGSGSGTDFTLTISSLQPEDFATYYCQQSYNTPLIFGQGTKLEIK
B8: 3243_J07 (antibody, V domains shown)
VH: B7 VH with A100V
VL: B7 VL with F49S
B9: 3253_P10 (antibody, V domains shown)
VH: B7 VH
VL: B7 VL with F49S, N53D
B10: 3252_C13 (antibody, V domains shown)
VH: QVQLQESGPGLVKPSETLSLTCTVSGASISSDYWSWIRLPPGKGLEWIGYIYNRGSTKYTPSLKSRVTISLDTAENQFSLRLRSVTAADTAIYYCARHVGGHTYGIDYWGQGTLVTVSS
VL: DIQMTQSPSSLSASVGDRVTITCRASQSISNYLNWYQHKPGEAPKLLNYAASSLQSGVPSRFSASGSGTDFTLTISSLQPEDFATYYCQQSYNTPITFGQGTRLEIK
B11: 3255_J06 (antibody, V domains shown)
VH: B10 VH with I92V
VL: B10 VL with T74S, S77G, Q100P
B12: 3362_B11 (antibody, V domains shown)
VH: QVQLQASGPGLVKPSETLSLTCTVSGDSITSGAYYWTWIRQHPGKGLEWIGYIYYSGNTYYNPSLKSRVTISLDTSKNQFSLKVNSVTAADTAVYYCARAASTSVLGYGMDVWGQGTTVTVSS
VL: B10 VL with N31R, H38Q, K39E, E42K, N48V, A64G, N93S, I96L
B13: 3420_I23 (antibody, V domains shown)
VH: QVQLQESGPGLVKPSETLSVTCKVSGDSISSYSWSWIRQPPGKGLEWVGYLYYSGSTKYNPSLKSRTTISVDTSTNQLSLKLSFVTAADTAVYFCARTGSESTTGYGMDVWGQGTTVTVSS
VL: B10 VL with N31T, H38Q, E42K, N48I, Q55H, A64G, T72A, N93S, T94P
B14: 3136_G05 (antibody, V domains shown)
VH: QVQLQESGPGLVKPSETLSLTCSVSGGSISSDFWSWIRQPPGKGLEWIGYVYNRGSTKYSPSLKSRVTISADMSKNQFSLNMSSVTAADTAVYYCAKNGRSSTSWGIDVWGKGTTVTVSS
VL: DIQMTQSPSSLSASVGDRLTITCRASQSISTYLHWYQQKPGKAPKLLIYAASSLQSGVPSRFSGSRSGTDFTLTISSLQPDDFATYYCQQSYSPPLTFGPGTKVDMK
B15: 3260_D19 (antibody, V domains shown)
VH: DMQLVESGGGLVPPGGSLRLSCAASGFSVSDNYINWVRQAPGKGLDWVSVFYSADRTSYADSVKGRFTVSSHDSKNTVYLQMNSLRAEDTAVYYCARVQKSYYGMDVWGQGTTVTVSS
VL: GIQMTQSPSSLSASVGDRVTITCRASQSISRYLNWYLQKPGKAPKLLISGASSLQSGVPSRFSGTGSGTEFTLTISSLQPEDFATYYCQQTFSIPLFGQGTKVEIK
B16: 3242_P05 (antibody, V domains shown)
VH: B15 VH
VL: B15 VL
B17: TCN-031 Fab fragment (Fab, V domains shown)
VH: EVQLVESGGGLVQPGGSLRISCAASGFTVSSNYMSWVRQAPGKGLEWVSVIYSGGSTYYADSVKGRFSFSRDNSKNTVFLQMNSLRAEDTAVYYCARCLSRMRGYGLDVWGQGTTVTVSS
VL: DIQMTQSPSSLSASVGDRVTITCRTSQSISSYLNWYQQKPGKAPKLLIYAASSLQSGVPSRFSGSGSGTDFTLTISGLQPEDFATYYCQQSYSMPAFGQGTKLEIK

The binders below were run against M2 protein of A/Hong Kong/483/1997, on cells (Influenza A virus A/Hong Kong/483/97 (H5N1)) (assay: FACS, supernatant on CHO cells stably expressing M2 of A/Hong Kong/483/97).
B1 was tested, and the FACS M2-HK MFI was 967 MFI.
For B2, the FACS M2-HK MFI was 1700 MFI.
Work on B3 yielded an FACS M2-HK MFI of 919 MFI.
Work on B4 yielded an FACS M2-HK MFI of 963 MFI.
Binder B5 has an FACS M2-HK MFI of 1670 MFI.
With B6 the FACS M2-HK MFI was 110 MFI.
B7 was tested, and the FACS M2-HK MFI was 434 MFI.
B8 was tested, and the FACS M2-HK MFI was 131 MFI.
In the case of B9, the FACS M2-HK MFI is reported as 43 MFI.
For B10, the FACS M2-HK MFI was 449 MFI.
B11 was tested, and the FACS M2-HK MFI was 442 MFI.
For B12, the FACS M2-HK MFI was 218 MFI.
B13 was tested, and the FACS M2-HK MFI was 112 MFI.
For B14, the FACS M2-HK MFI was 109 MFI.
Work on B15 yielded an FACS M2-HK MFI of 846 MFI.
B16 was tested, and the FACS M2-HK MFI was 596 MFI.

These binders were tested against M2 protein on influenza A/Puerto Rico/8/34 (H1N1) virus particles (Influenza A virus A/Puerto Rico/8/34 …, UniProt P06821 1-97) (assay: surface plasmon resonance, Fab on influenza virus).
In the case of B17, the Kd is reported as 14 nM, the koff is reported as 0.014 s⁻¹ and the kon is reported as 1e+06 M⁻¹ s⁻¹.
